Tests used:
Test in all cases: cell-based or functional assay
[1] = target: T1, zcyto24 (mouse IL-28A) (mouse) (UniProt Q4VK74)
T1 sequence: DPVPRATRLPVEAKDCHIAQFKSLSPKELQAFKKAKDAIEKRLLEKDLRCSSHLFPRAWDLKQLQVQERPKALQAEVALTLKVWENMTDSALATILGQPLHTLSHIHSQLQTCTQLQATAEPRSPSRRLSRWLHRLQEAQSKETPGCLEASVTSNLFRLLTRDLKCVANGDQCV

[2] = target: T2, zcyto20 (human IL-28A) (human) (UniProt Q8IZJ0)
T2 sequence: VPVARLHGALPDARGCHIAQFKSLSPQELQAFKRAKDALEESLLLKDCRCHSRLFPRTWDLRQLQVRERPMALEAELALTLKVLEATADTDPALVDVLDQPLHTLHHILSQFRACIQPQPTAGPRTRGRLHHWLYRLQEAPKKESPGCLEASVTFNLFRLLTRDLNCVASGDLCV

[3] = target: zcyto21 (human IL-29) (human) (UniProt Q8IU54)
Sequence of zcyto21 (human IL-29) (human) (Q8IU54 20-200): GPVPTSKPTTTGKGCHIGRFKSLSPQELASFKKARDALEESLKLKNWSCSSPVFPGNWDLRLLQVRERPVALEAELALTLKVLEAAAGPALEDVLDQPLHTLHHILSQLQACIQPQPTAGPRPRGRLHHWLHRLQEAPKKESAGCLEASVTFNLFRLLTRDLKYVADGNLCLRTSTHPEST

B1: human zcytor19-Fc homodimer (Fc fusion, not shown: a dimerising Fc or GST)
chain: RPRLAPPQNVTLLSQNFSVYLTWLPGLGNPQDVTYFVAYQSSPTRRRWREVEECAGTKELLCSMMCLKKQDLYNKFKGRVRTVSPSSKSPWVESEYLDYLFEVEPAPPVLVLTQTEEILSANATYQLPPCMPPLDLKYEVAFWKEGAGNKTLFPVTPHGQPVQITLQPAASEHHCLSARTIYTFSVPKYSKFSKPTCFLLEVPEAN
Percent Inhibition of Ligand-induced Interferon Stimulated Response Element (ISRE) Signaling by Soluble Receptors [1]: 90% | Percent Inhibition of Ligand-induced Interferon Stimulated Response Element (ISRE) Signaling by Soluble Receptors [2]: 92% | Percent Inhibition of Ligand-induced Interferon Stimulated Response Element (ISRE) Signaling by Soluble Receptors [3]: 45%

Reference: patent US20040138122A1
